Measurements: article PMC6172828

What was measured:
[1] = target: human ATF7IP peptide, K16me3, C-terminal biotin (human); experiment: SPR; same chip and buffer, 25 °C; kinetics not fitted, KD by steady-state affinity analysis; for all tri-methylated peptides and LIG1 K126me2 G9a SET-domain in twofold dilutions from 200 µM
[2] = target: histone H3 peptide, K9me1, C-terminal biotin (human); experiment: SPR; biotinylated peptides immobilised on streptavidin chip SA, Biacore T200, 25 °C, 10 mM HEPES pH 7.4, 150 mM NaCl; G9a SET-domain 1.5-fold dilutions from 20 or 10 µM; 1:1 binding model, KD calculated from kon and koff
[3] = target: histone H3 peptide, K9me2, C-terminal biotin (human); experiment: as above
[4] = target: histone H3 peptide, unmodified (K9me0), C-terminal biotin (human); experiment: as above
[5] = target: human ATF7IP peptide, K16me1, C-terminal biotin (human); experiment: as above
[6] = target: human ATF7IP peptide, K16me2, C-terminal biotin (human); experiment: as above
[7] = target: human ATF7IP peptide, unmodified (K16me0), C-terminal biotin (human); experiment: as above

human G9a SET-domain (residues 913–1193) (from UniProt Q96KQ7 913-1193) (domain or fragment)
Kd [1]: > 1 µM | Kd [2]: 0.43 µM | Kd [3]: 0.35 µM | Kd [4]: 0.09 µM | Kd [5]: 0.043 µM | Kd [6]: 0.038 µM | Kd [7]: 0.18 µM
